In US20230151434A1, “REAWAKENING OF DORMANT TUMOR CELLS BY MODIFIED LIPIDS DERIVED FROM STRESS ACTIVATED NEUTROPHILS” (The Wistar Institute of Anatomy and Biology, priority 2020, published 2023):

Key:
[1] = system: LL2^cisA and AT-3^DoxA cells; test: In vitro co-culture of chemotherapy-arrested mouse tumor cells with PMN; type: cell-based
Procedure: (§1) The KPr cell line (16) was maintained in RPMI 1640 medium (Corning) and 10% FBS (Gibco). Treatment of KPr cells with 250 nM 4-hydroxytamoxifen (4-OHT, Sigma-Aldrich) induced p53 expression. p53-induced cells (KPr^p53) were stained with CellTrace dye for 20 min at 37° C. according to the manufacturer's instructions (Life Technologies) and seeded at 8500 cells/cm^2 in culture in a T175 tissue culture-treated flask (Gibco). After 7 days, cells were detached and sorted based on the CellTrace dye intensity as proliferating (KPr^p53P, with lower CellTrace) and arrested cells (KPr^p53A, with higher-intensity CellTrace; see FIG. 1A for representative image). LL2 cells were seeded at 1000 cells/cm2 and treated for 3 days with 2.5 μM cisplatin (Selleckchem). After that, cells were stained with CellTrace and sorted as described above. OVCAR3 cell senescence was induced by treating 5×10^4 cells/cm2 with 0.5 μM cisplatin for 72 hours. After that time, cells were stained with CellTrace and sorted. A549 senescence was induced by 72-hour treatment with 4 μM cisplatin and cells were sorted after staining with CellTrace. Time points for sorting were chosen as the best to observe separation between arrested and proliferating cells. Cells were sorted on Astrios (Beckman Coulter) or Melody (Becton Dickinson) fluorescence-activated cell sorters.
(§2) Arrested tumor cells were plated at 100 cells/cm^2 in a 48-well tissue culture-treated plate (Costar) for coculture experiments. After 24 hours, PMN-MDSC or PMN were added at indicated ratios. Cocultures were maintained for 48 hours in RPMI 1640+10% FBS in the presence of mouse recombinant GM-CSF (10 ng/ml; Rocky Hill) to ensure neutrophil viability. All control conditions were in the presence of media with GM-CSF. All indicated supplements (NE, S100A8/A9, BGJ398, ICI 118-551, IL-2, MPO inhibitor, LPS, lipids, PMA, and thapsigargin 1 μM) were added to culture at the same time as PMN and maintained for 48 hours. After that, media were removed and replaced by fresh media without GM-CSF. After 1 week, GFP^+ cells in wells were counted via an inverted microscope. When lipid extracts were used, lipids were added to dormant cells in culture at 1 to 0.05 or 0.01 nmol as indicated in each experiment.

[2] = system: KPr^p53A cells; test: In vitro co-culture of dormant tumor cells with PMN (count of GFP+ cells); type: cell-based, mouse
Procedure: as §1, §2

[3] = system: PMN; test: PMN viability (proportion of live PMN); type: cell-based, mouse
Procedure: FIG. 2A-FIG. 2K show neutrophil-mediated reactivation of dormant cells is regulated by stress-induced S100A8/A9. (FIG. 2A) Fold increase in the number of KPr^p53A cells cultured in the presence of PMN and S100A8/A9 or indicated cytokines relative to KPr^p53A cells cultured with PMN. Three independent experiments with 16 replicates were performed. Mean±SEM of one experiment is shown. (FIG. 2B) Fold increase in the number of KPr^p53A cells cultured in the presence of PMN and LPS relative to KPr^p53A cells cultured with PMN or alone. Means±SEM of three independent experiments with 16 replicates each are shown. (FIG. 2C) Fold increase in the number of KPr^p53A cells cultured in the presence of S100A8/A9 alone, PMN and S100A8/A9, or PMN-MDSC relative to KPr^p53A cultured alone. Means±SEM of 10 independent experiments with 16 replicates each are shown. (FIG. 2D) S100A8/A9 protein produced by PMN after treatment with indicated hormones or LPS was measured by ELISA. PMN-MDSC were isolated from spleens of Lewis lung carcinoma tumor-bearing mice. Means±SEM and results of each independent experiment with three replicates are shown. (FIG. 2E) S100A8/A9 protein secreted in vitro from PMN and PMN treated with NE with or without ICI-118; […] as measured by ELISA. Means±SEM and results of independent experiment with three replicates are shown. (FIG. 2F) Flow cytometry staining of ADRB2 receptor (dark gray) on PMN isolated from mouse spleen. Isotype control, light gray. Representative histogram of three experiments is shown. (FIG. 2G) Fold increase in the number of KPr^p53A cells cultured with PMN alone, NE alone, PMN and NE together, and PMN and NE plus ICI-118; 553 relative to KPr^p53A cells cultured alone (Ctrl). Ten independent experiments with 16 replicates for each experiment were performed. Means±SEM in a representative experiment are shown. (FIG. 2H) Number of KPr^p53A cells cultured in the presence of PMN from S100a9KO mice alone or together with NE relative to KPr^p53A cells cultured alone (ctrl). Means±SEM are reported for 16 replicates. (FIG. 2I) Percentage of live PMN after overnight incubation with NE, S100A8/A9, or LPS. Each dot represents the average of three experimental replicates of one single experiment. Means±SEM are shown for each group. (FIG. 2J) Fold increase in number of LL2^CisA cells cultured with PMN alone or together with S100A8/A9 or NE relative to LL2^CisA cultured alone (Ctrl). Means±SEM of three independent experiments with 16 replicates each are shown. […] In all panels, P values were calculated using ANOVA test with correction for multiple comparisons.
FIG. 11A-FIG. 11G show the mechanism of dormant tumor cell reactivation. […] P values were calculated by ANOVA test with correction for multiple comparisons. […]

Molecule | NE- and PMN-induced reactivation of dormant mouse tumor cells, effect of β-blocker ([1]; PMN and NE plus ICI-118,551) | proliferation of KPr^p53A cells induced by PMN and NE, effect of β-blocker ([2]; PMN and NE plus ICI-118,551) | cytotoxic effect on PMN ([3]; proportion of live PMN after exposure) | proliferation of arrested mouse tumor cells cultured with mouse PMN plus supplement ([1]; LL2^cisA, AT-3^DoxA) | reactivation/proliferation of KPr^p53A cells, supplement alone ([2]; absence of PMN) | reactivation of KPr^p53A cells cultured with MON plus supplement ([2]; monocytes instead of PMN) | reactivation/proliferation of KPr^p53A cells cultured with PMN plus supplement ([2]; supplement added with PMN, LPS 0.5 to 2 μg/ml) | PMN viability [3]
Cc1ccc(OCC(O)C(C)NC(C)C)c2c1CCC2 (centres unmarked) [ICI-118,551] | this effect was abrogated | this effect was abrogated | no cytotoxic effect on PMN | – | – | – | – | –
S100A8/A9: recombinant S100A8/A9, heterocomplex of two S100 calcium binding proteins (calprotectin) (protein, UniProt P27005 2-89; P31725 2-113, looked up) Protein S100-A8: PSELEKALSNLIDVYHNYSNIQGNHHALYKNDFKKMVTTECPQFVQNINIENLFRELDINSDNAINFEEFLAMVIKVGVASHKDSHKE Protein S100-A9: ANKAPSQMERSITTIIDTFHQYSRKEGHPDTLSKKEFRQMVEAQLATFMKKEKRNEALINDIMEDLDTNQDNQLSFEECMMLMAKLIFACHEKLHENNPRGHGHSHGKGCGK | – | – | – | activated proliferation | no effect | failed to reactivate KPr^p53A cells | enabled PMN to induce proliferation of KPr^p53A cells | did not affect PMN viability
